Measured values reported in US20200216522A1 (DENALI THERAPEUTICS, published 2020).

B1: murine anti-Tau hybridoma antibody 17G2.A1 (antibody, V domains shown)
VH: QVQLQQPGAELVGPGSSVKLSCKASGYTFINYWIDWMKQSPGQGLEWIGNIYPSDSESHYNQKFTDKATLTVDISSSTAYLQLSSLTSEDSAVYYCALYSKGYWGQGTSVTVSS
VL: DVLMTQTPLSLPVTLGDQASISCRSSQNIVHTNGNTYLEWYLQKPGQSPKLLIYKLSSRFSGVPDRFSGSGSGTDFTLKISRVEAEDLGVYYCFQGSHLPFTFGGGTKLEIKR
notes: mouse IgG from hybridoma; also called anti-Tau 17G2.A1
B2: chimeric IgG clone 1D10 (antibody, V domains shown)
VH: EVQLQQSGAELVRPGASVKLSCTASGFNIKDSLMHWMKQRPEQGLEWIGWIDPEDGETKYAPKFQDKATLTADTSSNAAYLQLSSLTSEDTAIYYCVRGDWDGGYWGQGTTLTVSS
VL: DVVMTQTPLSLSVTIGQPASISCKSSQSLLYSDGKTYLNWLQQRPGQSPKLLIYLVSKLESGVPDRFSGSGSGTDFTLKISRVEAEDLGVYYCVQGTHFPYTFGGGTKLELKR
notes: mouse-human chimeric IgG from HEK293

How the values were obtained:
Assay in all cases: peptide array
Peptide_082 = target: T1, Peptide_082 (human)
T1 peptide: RHLSNVSSTGSIDMV
Experimental: (§1) Chimeric IgG antibodies were diluted to a concentration of 5 μg/mL in 3% bovine serum albumin in Tris-buffered saline (10 mM Tris, pH 7.5, 150 mM NaCl) supplemented with 0.05% Tween®20 (3% BSA-TBST). Diluted antibodies were allowed to bind to peptides printed onto slides for 2 hours at room temperature as described in the PepStar™ user manual (JPT Technologies). Following extensive washing (5×5 minutes with TBST), slides were incubated with secondary antibodies goat anti-human IgG, Alexa Fluor 568 conjugate, 1 μg/mL in 3% BSA-TBST) for 1 hour at room temperature. After extensive washing, (5×5 minutes with TBST, then 5×5 minutes with ultrapure water), slides were dried overnight and imaged using an Opera Phenix™ system in the 568 nm channel. Images were aligned to peptide array definition files using Galviewer software obtained from JPT Technologies and ImageJ software with control human IgG serving as landmarks.
(§2) Full-length human Tau (encoded by the microtubule-associated protein Tau isoform 2 gene (MAPT), amino acid sequence NCBI Reference Sequence No. NP_005901.2, SEQ ID NO: 1, variant designation “2N4R”) was divided into 15 amino acid peptides, offset by 5 amino acids (overlapping by 10 amino acids). Peptides were synthesized and covalently attached to silica slides in triplicate with a spot size of 0.5 mm (obtained from JPT Technologies, Berlin, Germany). Antibodies muIgG were diluted to a concentration of 30 μg/mL in 3% bovine serum albumin in Tris-buffered saline (10 mM Tris, pH 7.5, 150 mM NaCl) supplemented with 0.05% Tween® 20 (3% BSA-TBST). Diluted antibodies were allowed to bind to peptides printed onto slides for 2 hours at room temperature as described in the Pepstar™ user manual (JPT Technologies). Following extensive washing (5×5 min TBST), slides were incubated with secondary antibodies (donkey anti-mouse IgG, Alexafluor 647 conjugate, 5 μg/mL in 3% BSA-TBST) for 1 hour at room temperature. After extensive washing, (5×5 minutes TBST, 5×5 minutes ultrapure water), slides were dried under a stream of nitrogen and imaged on the Opera Phenix in the 647 nm channel. Images were aligned to peptide array definition file using Galviewer software obtained from JPT Technologies and ImageJ software with control mouse IgG serving as landmarks.

Peptide_050 = target: T2, Peptide_050 (human)
T2 peptide: APVPMPDLKNVKSKI
Experimental: as §1, §2

Peptide_081 = target: T3, Peptide_081 (human)
T3 peptide: GDTSPRHLSNVSSTG
Experimental: as §1, §2

Peptide_019 = target: T4, Peptide_019 (human)
T4 peptide: AQPHTEIPEGTTAEE
Experimental: as §1, §2

Peptide_084 = target: T5, Peptide_084 (human)
T5 peptide: SIDMVDSPQLATLAD
Experimental: as §1, §2

Peptide_003 = target: T6, Peptide_003 (human)
T6 peptide: MEDHAGTYGLGDRKD
Experimental: as §1, §2

Peptide_038 = target: T7, Peptide_038 (human)
T7 peptide: GEPPKSGDRSGYSSP
Experimental: as §1, §2

Peptide_059 = target: T8, Peptide_059 (human)
T8 peptide: CGSKDNIKHVPGGGS
Experimental: as §1, §2

Peptide_048 = target: T9, Peptide_048 (human)
T9 peptide: PSSAKSRLQTAPVPM
Experimental: as §1, §2

Peptide_010 = target: T10, Peptide_010 (human)
T10 peptide: SPLQTPTEDGSEEPG
Experimental: as §1, §2

Peptide_013 = target: T11, Peptide_013 (human)
T11 peptide: SETSDAKSTPTAEDV
Experimental: as §1, §2

Peptide_076 = target: T12, Peptide_076 (human)
T12 peptide: LTFRENAKAKTDHGA
Experimental: as §1, §2

Peptide_057 = target: T13, Peptide_057 (human)
T13 peptide: KLDLSNVQSKCGSKD
Experimental: as §1, §2

Peptide_044 = target: T14, Peptide_044 (human)
T14 peptide: PTPPTREPKKVAVVR
Experimental: as §1, §2

Peptide_080 = target: T15, Peptide_080 (human)
T15 peptide: SPVVSGDTSPRHLSN
Experimental: as §1, §2

Peptide_018 = target: T16, Peptide_018 (human)
T16 peptide: GKQAAAQPHTEIPEG
Experimental: as §1, §2

Peptide_006 = target: T17, Peptide_006 (human)
T17 peptide: QGGYTMHQDQEGDTD
Experimental: as §1, §2

Peptide_030 = target: T18, Peptide_030 (human)
T18 peptide: DGKTKIATPRGAAPP
Experimental: as §1, §2

Peptide_083 = target: T19, Peptide_083 (human)
T19 peptide: VSSTGSIDMVDSPQL
Experimental: as §1, §2

Peptide_055 = target: T20, Peptide_055 (human)
T20 peptide: GGGKVQIINKKLDLS
Experimental: as §1, §2

Peptide_045 = target: T21, Peptide_045 (human)
T21 peptide: REPKKVAVVRTPPKS
Experimental: as §1, §2

Peptide_041 = target: T22, Peptide_041 (human)
T22 peptide: GSPGTPGSRSRTPSL
Experimental: as §1, §2

Peptide_060 = target: T23, Peptide_060 (human)
T23 peptide: NIKHVPGGGSVQIVY
Experimental: as §1, §2

Peptide_008 = target: T24, Peptide_008 (human)
T24 peptide: EGDTDAGLKESPLQT
Experimental: as §1, §2

Peptide_068 = target: T25, Peptide_068 (human)
T25 peptide: QVEVKSEKLDFKDRV
Experimental: as §1, §2

Peptide_017 = target: T26, Peptide_017 (human)
T26 peptide: DEGAPGKQAAAQPHT
Experimental: as §1, §2

Peptide_049 = target: T27, Peptide_049 (human)
T27 peptide: SRLQTAPVPMPDLKN
Experimental: as §1, §2

Peptide_070 = target: T28, Peptide_070 (human)
T28 peptide: FKDRVQSKIGSLDNI
Experimental: as §1, §2

Peptide_043 = target: T29, Peptide_043 (human)
T29 peptide: RTPSLPTPPTREPKK
Experimental: as §1, §2

Peptide_022 = target: T30, Peptide_022 (human)
T30 peptide: AGIGDTPSLEDEAAG
Experimental: as §1, §2

Peptide_029 = target: T31, Peptide_029 (human)
T31 peptide: KAKGADGKTKIATPR
Experimental: as §1, §2

Peptide_072 = target: T32, Peptide_072 (human)
T32 peptide: SLDNITHVPGGGNKK
Experimental: as §1, §2

Peptide_079 = target: T33, Peptide_079 (human)
T33 peptide: EIVYKSPVVSGDTSP
Experimental: as §1, §2

Peptide_078 = target: T34, Peptide_078 (human)
T34 peptide: TDHGAEIVYKSPVVS
Experimental: as §1, §2

Peptide_009 = target: T35, Peptide_009 (human)
T35 peptide: AGLKESPLQTPTEDG
Experimental: as §1, §2

Row | Binder | binding result (Peptide_082) | binding result (Peptide_050) | binding result (Peptide_081) | binding result (Peptide_019) | binding result (Peptide_084) | binding result (Peptide_003) | binding result (Peptide_038) | binding result (Peptide_059) | binding result (Peptide_048) | binding result (Peptide_010) | binding result (Peptide_013) | binding result (Peptide_076) | binding result (Peptide_057) | binding result (Peptide_044) | binding result (Peptide_080) | binding result (Peptide_018) | binding result (Peptide_006) | binding result (Peptide_030) | binding result (Peptide_083) | binding result (Peptide_055) | other results
1 | B1 | no binding (tested: 30 ug/mL) | no binding (tested: 30 ug/mL) | no binding (tested: 30 ug/mL) | no binding (tested: 30 ug/mL) | no binding (tested: 30 ug/mL) | no binding (tested: 30 ug/mL) | binds | no binding (tested: 30 ug/mL) | no binding (tested: 30 ug/mL) | no binding (tested: 30 ug/mL) | no binding (tested: 30 ug/mL) | no binding (tested: 30 ug/mL) | no binding (tested: 30 ug/mL) | no binding (tested: 30 ug/mL) | no binding (tested: 30 ug/mL) | no binding (tested: 30 ug/mL) | no binding (tested: 30 ug/mL) | no binding (tested: 30 ug/mL) | no binding (tested: 30 ug/mL) | no binding (tested: 30 ug/mL) | binding result (Peptide_045): no binding (tested: 30 ug/mL); binding result (Peptide_041): no binding (tested: 30 ug/mL); binding result (Peptide_060): no binding (tested: 30 ug/mL); binding result (Peptide_008): no binding (tested: 30 ug/mL); binding result (Peptide_068): no binding (tested: 30 ug/mL); binding result (Peptide_017): no binding (tested: 30 ug/mL); binding result (Peptide_049): no binding (tested: 30 ug/mL); binding result (Peptide_070): no binding (tested: 30 ug/mL); binding result (Peptide_043): no binding (tested: 30 ug/mL); binding result (Peptide_022): no binding (tested: 30 ug/mL); binding result (Peptide_029): no binding (tested: 30 ug/mL); binding result (Peptide_072): no binding (tested: 30 ug/mL); binding result (Peptide_079): no binding (tested: 30 ug/mL); binding result (Peptide_078): no binding (tested: 30 ug/mL); binding result (Peptide_009): no binding (tested: 30 ug/mL)
2 | B2 | no binding (tested: 5 ug/mL) | no binding (tested: 5 ug/mL) | no binding (tested: 5 ug/mL) | no binding (tested: 5 ug/mL) | no binding (tested: 5 ug/mL) | no binding (tested: 5 ug/mL) | no binding (tested: 5 ug/mL) | no binding (tested: 5 ug/mL) | no binding (tested: 5 ug/mL) | no binding (tested: 5 ug/mL) | no binding (tested: 5 ug/mL) | no binding (tested: 5 ug/mL) | no binding (tested: 5 ug/mL) | no binding (tested: 5 ug/mL) | no binding (tested: 5 ug/mL) | no binding (tested: 5 ug/mL) | no binding (tested: 5 ug/mL) | no binding (tested: 5 ug/mL) | no binding (tested: 5 ug/mL) | no binding (tested: 5 ug/mL) | binding result (Peptide_045): no binding (tested: 5 ug/mL); binding result (Peptide_041): no binding (tested: 5 ug/mL); binding result (Peptide_060): no binding (tested: 5 ug/mL); binding result (Peptide_008): no binding (tested: 5 ug/mL); binding result (Peptide_068): no binding (tested: 5 ug/mL); binding result (Peptide_017): no binding (tested: 5 ug/mL); binding result (Peptide_049): no binding (tested: 5 ug/mL); binding result (Peptide_070): binds; binding result (Peptide_043): no binding (tested: 5 ug/mL); binding result (Peptide_022): no binding (tested: 5 ug/mL); binding result (Peptide_029): no binding (tested: 5 ug/mL); binding result (Peptide_072): no binding (tested: 5 ug/mL); binding result (Peptide_079): no binding (tested: 5 ug/mL); binding result (Peptide_078): no binding (tested: 5 ug/mL); binding result (Peptide_009): no binding (tested: 5 ug/mL)
